Results as given in the DeepSol protein solubility set.

Assay: soluble on expression in E. coli; label from the status in PepcDB or PDB records

Row | Sequence | soluble on expression in E. coli
1 | MLFDTHAHLNAEQYDTDLEEVIERAKAEKVERIVVVGFDRPTITRAMEMIEEYDFIYAAIGWHPVDAIDMTEEDLAWIKELSAHEKVVAIGEMGLDYHWDKSPKDIQKEVFRNQIALAKEVNLPIIIHNRDATEDVVTILKEEGAEAVGGIMHCFTGSAEVARECMKMNFYLSFGGPVTFKNAKKPKEVVKEIPNDRLLIETDCPFLTPHPFRGKRNEPSYVKYVAEQIAELKEMTFEEIASITTENAKRLFRINLEHHHHHH | not soluble
2 | GMARRDISGAVDFAYLEGFAAGDFAVVDEVLALFREQAALWAPMLDPTHPGWKDAVHTVKGAARGVGAFNLGEVCERCEAGQESLEGVRTALDAALLDIAAYAHEQALRSLKG | soluble
3 | MGSDKIHHHHHHMPLYRHLDLQSRYVTSRPVDVWLPAATGDQPLPVIYMHDGQNLFDPTLRADGEVWAVDQAIERLCATYNWPGAIVVGVWCTDQRWREYAPQKPFAALRQTRGWESIVERMGGEPVSDAYLSFLVEEVRPFVDRHYPTLPDASNTFLMGSSMGGLISLYGVCQYPDLFAGAGCLSTHWPAGGNLLVDELAALLPPAGRHRFYFDYGTVGLDAEYEPFQQRMDRLLEQAGYRHGHDWLTRKFPGAAHNEAAWRARVADVIAFLVLGRVAGE | not soluble
4 | DIALTQPASVSGSPGQSITISCTGTSSDVGSNNYVSWYQQHPGKAPKLMIYGGSNRPSGVSNRFSGSKSGNTASLTISGLQAEDEADYYCRSWDSNLSYSVFGGGTKLTVLGQPKAAPSVTLFPPSSEELQANKATLVCLISDFYPGAVTVAWKADSSPVKAGVETTTPSKQSNNKYAASSYLSLTPEQWKSHRSYSCQVTHEGSTVEKTVAPTEA | soluble
5 | MYSSNYIYQHDDLELHGFLAHEEGIKQSRPAVIVAHDWSGRGEFACLKAKQLAEMGYIGFALDMYGQGQIGSNNDEKMALMQPLYSDRSLLRGRLYAALEAIKSISVVDNNRIAIIGFCFGGLCALDLARSGADIRGAVSFHGLLNKPENLASGRIKAKILALHGYDDPMAKPEQVHAFCQEMTEANVDWQMHMYGQVKHAFTNPQAHDEHLGLIYDEVAARRSWQAMSQFLQEIFN | not soluble
6 | MNYHQYYPVDIVNGPGTRCTLFVSGCVHECPGCYNKSTWRVNSGQPFTKAMEDQIINDLNDTRIKRQGISLSGGDPLHPQNVPDILKLVQRIRAECPGKDIWVWTGYKLDELNAAQMQVVDLINVLVDGKFVQDLKDPSLIWRGSSNQVVHHLRLEHHHHHH | soluble
7 | MSFHVRFTLEAKADIERLYRFLAEHDFDVAERTLETIDSAWSLLEQFPFSCRKIDDANPFLREFIISFGNSGYVVLFEIEDSNTVTVLAVRHQLEDDYY | soluble
8 | MAKNKKLFEYLSQHAETISSTWYETIEETDPNSIYASTDPVVIHNLKSQNLAFNYKINRIFIDDEDVYLPILKEWAFEVTQDQEHLKTPIHYIIREFVRVRDLYVSYVKEFVHLNQNTVKSEEAEDLYHALIKAFDLVIHIFIEEMYKNTSLQLQAQKDMITELSAPVIVLFHSVGLLPLIGDIDTVRAKLIMENTLHQCAKKKVTQLYIDLSGVAVIDTMVAHQLFSLIEALRLIGVSSTLSGIRPEIAQTAVQLGLSFEGISLRSTLASAIASDLKLKKV | not soluble
9 | MAPVLGLLENEAKVKSIIRNNNLLEKKFSSFQRQCRDLSRNHALLDSCCSQVKHSATAAEEMSVSDKDVKNHQKKLHSFLAQSTDQVNSTIDKMDFFCSKGNHSLPMEMSVLSITLPYEACIEKSAKKHETMVFSIDEVSSAVQHLENEKVDVEKRQSSTGKLIFQTEKEIMKLKEEIQVNTNLESNIIQLSLEKLSSVKDSSTSENVYKAKLEEEINEARQIYEDALKQDVISQESAMMTQQLESLNELCSDLSDLNKINLTSIEKFPDCNEVCELSDELQTLEKSEAENSESIINLEASLEDIKYQNKKVRKSFDQINQLENAYIVKKEVLTRKKSAIEDVKRQIAESKITLNKLKVTVRAVERSDTPENVESKKEEAFRRLVASSTELPGPESFQRDNVRNVEKSLRFKKWNQRTTSQSSFTSDSTRSIGPIGVHYPGIKLINKDAATPTEVIRKITSELNESATSEDSTFDDDTGTTQDESGLNAFFNSPVSKEQTSMRPQFSMIAHMEKYDTMQAKKNMDKLPDNVRRESEMEHISHNYGRPSEVNRPASVSSKRHDPAASISATSEESILSGTTQDESMLNDFFNPTGTDEKLNDVEFSMTAHVAEFDNRQKAKRAAEQIKKSSSKISGKKEESVADDKSSGNSYVAESEAGFSQGSEENESMDDEDLVAPDDGGLDQTIWDGDD | not soluble
10 | MAHHHHHHMGTLEAQTQGPGSMIGITQAEAVLTIELQRPERRNALNSQLVEELTQAIRKAGDGSARAIVLTGQGTAFCAGADLSGDAFAADYPDRLIELHKAMDASPMPVVGAINGPAIGAGLQLAMQCDLRVVAPDAFFQFPTSKYGLALDNWSIRRLSSLVGHGRARAMLLSAEKLTAEIALHTGMANRIGTLADAQAWAAEIARLAPLAIQHAKRVLNDDGAIEEAWPAHKELFDKAWGSQDVIEAQVARMEKRPPKFQGA | soluble
11 | MTTLYSIQEKYQQLLNLAEQLDPEALKDTLESIEDELETKAENVAFVIKELEGQSLILDVEIKRLSERKNTINNNVKRLKQSLHDAMLVANKQKIKTNLFTLDIRKNPHSVFVEDESKLINYLVEQPKKLDKTKLKDDLKKGIDVPGAVLVQTERLQIK | not soluble
12 | SGSEPTKVMVAVNASTIKDYPNPSISCKRAFEWTLEKIVRSNTSDFKILLLHVQVVDEDGFDDVDSIYASPEDFRDMRQSNKAKGLHLLEFFVNKCHEIGVGCEAWIKTGDPKDVICQEVKRVRPDFLVVGSRGLGRFQKVFVGTVSAFCVKHAECPVMTIKRNADETPSDPADD | soluble
13 | SGEVEISARAYGKMCLHASRYPHAAVNGLLLAPATGSGECLCLTDCVPLFHSHLALSVMLEVALNQVDVWGAQAGLVVAGYYHANAVLDDQSPGPLALKIAGRIAEFFPRAVLIMLDNKKLVTRPRVPPVIVLENQGLQWVPKDKNLVMWRDWEESRQMVGALLEGRAHQHLVDFDCHLDDIRQDWTNQRLNTQITQWSGSTDGNA | soluble
14 | MGSDKIHHHHHHMHRDTVFDLIGIGFGPSNLALAVRLAEEAGVPDLAHCFIERQPEFGWHRGMLLDDCRMQISFLKDLVTMRDPKSRFTFINYLFERGRLADFVNLKSFYPTRVEFHDYLAWVAASFDDRVNYGQTVTGIEAVKATARTNEVEALRVFSRDSEGREWQRVTRALSVGIGGGAQVPEAFAALGTHNIVHSSQYLTSIDRVVGPASSARKRVAVIGAGQSAAEVFVDLTRRYPHVDASLIIRSGALKPADDSPFVNEIFSPAFTDVVYAQPRDGRRALIERFRDTNYAVVDRPLIEQIYEMLYLQNVCAEPRHRLLANTGIETAVRTVNGRIELTLRDRLNGHARAEQFDALVLATGYRRDTHLDLLEGLAPHLGEALAQGNVERDYRLATPASFKPRIYLQGCCEDSHGLSDTLLSVLALRSDEIAASLAHHAAQDRSAGRAGEAQANATAASRMAFAL | not soluble
15 | HRIPAYTLTDQNGDAFKSTAYDSSFKVYDFVFTRCGSICPEMTTQMIRVQEAFKHDKDVVLISLTVDPEHDSSEVLQRYAKQYNAIPGKWYFLTGEKDTIYTLGQRQFFLTAKQNEEDLTDFLHSERIVLVDKNGWIRGYYTGTNEKDVDRLITELKVLQKIERDAKRK | not soluble
16 | MVEFVNDPNFKDLVVDTTIDNRNDEEPMTIRNFTELMIQFYKLGWMRGSGGAMGCISGSELMISPSALQKERIREQDVFVYNMKDKTEVQRPPNKRITVSSCSVLFSLIMKETGSECVIHTHSKCANLITQLIKSNVFEISHQEYIKGIYDPFSGKALKYSDTLTIPIIDNMPSESQLLVCAINRSPMQPDCFINIALFQEPIRGVLENYPQAIAVLVRNHGLFVWGPTWESTKIMTECIDYLLELSIEMLKNNIPLVNEEAFEKEDNLSDKMRTLMFGDMAPV | not soluble
17 | IRRKINANVYDKVVLYAPTWRGIHGKATLDIEKLKNDLEKLADQDCHIVFRGHHMIEKLVSEQNISGITIVPSEIDTNELLGAIDILITDYSSIAFDFFVMNRPVIYYAYDIEQYNNERGLYFPLNELPGTVCFNDVELLNTLSGYLRNEIYFDASKGIDKFCKNDDGSVCGKVIEWFFF | not soluble
18 | MAHHHHHHMKRVNAIESNREEARERQLSVVRERAKHEAEKMAEELERRSGATLDEIGRTLEAKKRESSALQADRESRIWECEHTLEKIRTRKEDEESASERLRQAMQQPGQGLGLRQSATETKEQQLEMVQLDGARGREAVMRERHSIEAVRRTVRKERCRQRRQWIHQIKEMNAKFPEQVRPLAEERKKKYEQATAKEDAAERALAADVKMIEEYLPKPISLEDIPVNPEETDIIRHQFDEVFTQ | not soluble
19 | MSLKVIDFRFRPNTPEIISGIANSNMFRAACKAIGFEKRQPQPLEQIVEDLDKRGVVLSVISGRDSETTYGSPANNGSVLAFCRAYPERFIGFWGLDPHKGMAAVRELRHAVNELGMRGASIDPYLAHLRPDDARYYPIYAACCDLNVPVFITTAPPPQVAGAVMDYTDPRHVDIVARDFPELRIVMSHGGYPFVNEAIFACLRNANVYMDCSEYEQAPMAEAYIQAMNGIIQDKVVFASAHPFIEQADALEVYARMPLSDEARHKVMYANACKVLGIEGHHHHHH | soluble
20 | MNEKKLVEALKRKEDWAYEVLYREFAPKIGSIAKSFLNTDDVDDVVQDVFLRIFKGIKKFRGDSKLSTWIYRIAVNVCKDYLQKYKKRNEFLTDFQEKDNEEEIYIQPEAKENVLDEVLRSITAERVQKALEKLSPEDRLLIKLRDIDGLSYEEIASVLQKPVGTVKSRLHYARKRLGNLLKEGETVER | not soluble
21 | MRAVIPYKKAGAKSRLSPVLSLQEREEFVELMLNQVISSLKGAGIEQVDILSPSVYGLEEMTEARVLLDEKDLNEALNRYLKEAEEPVLIVMADLPLLSPEHIKEISSTEKDVCIVPGKGGGTNALFIKNPSKYRVKYYGSSFLTHCSIATDSGQDFEIYDSFMAGTDIDEPEDLVELLIHGKGAAKDYIESKFRLEVKKGRVGLVPL | soluble
22 | MSLSITRRVRLSVDTCCYEAEIAGILRPQLLKGRMSVREEFDAWAAEGKDRGMEDRHWHTAKHVLARMPVEPGDTVLDLGTGSGYALRALRDTNDAGPCYGLDGSPEMLRNAREYTDDDGIGFLRGDFDALPFATDSIDHVFSMEAFYYASDPPHTLEEIARVLRPGGTANIAVNYYEENVHSHEWQEFIDIEMTRWSADEYREAFREAGLAVAAQDTIPDREVEIPPADTFPTDEFETREAMVERYRELGTLLTVGVATEGHHHHHH | soluble
23 | GGSVKKGRRSRRCGQCPGCQVPEDCGVCTNCLDKPKFGGRNIKKQCCKMRKCQNLQWMPSKAYLQKQAKAVK | soluble
24 | MHVIDLSYFVKIYRSKNKHFSVNFLRHLHRAGDLHLSGTTRCIYEDVIMKKCLTLLIATVLSGISLTAYAAQPMSNLDSGQLRPAGTVSATGASNLSDLEDKLAEKAREQGAKGYVINSAGGNDQMLGTATIYKLEHHHHHH | not soluble
25 | MGKRVVYPGTFDPPHYGHLDIVKRSARIFDEVVVAVAKKPRKFLLFDAEERVKMFEKMVEDIPNVEVKMFDCLLVDFMKREGINVIVRGVRLFTDFEYELQIALTNYKLAGVETVFMMPSQEYIHISSTIVRDVASYCGDLDNMVHPYVKQKLREKFNCGS | soluble
